Experimental data: US12186374B2 (Sanofi-Aventis Deutschland GmbH, priority 2014, dated 2025)

Test system: patients with T2DM
Experiment: Treatment-emergent adverse events incl. serious, fatal, leading to discontinuation (Example 3)
[1] = PT ≥3% in any treatment group, Safety population

Substance: Gly(A21)-Arg(B31)-Arg(B32)-human insulin [Insulin Glargine]
- Diarrhoea, % of patients (Example 3): 2.7%
- Incidence of gastrointestinal disorder (System organ class) events (Example 3): 7.9%
- Nasopharyngitis, % of patients (Example 3): 8.8%
- Nausea, % of patients (Example 3): 0.5%
- Patients discontinuing due to nausea, number (Example 3): none
- Patients reporting treatment-emergent adverse events, % (Example 3): 52.3%
- Patients reporting treatment-emergent adverse events, number (Example 3): 191 patients
- Patients who withdrew from treatment due to TEAEs, % (Example 3): 0.8%
- Patients who withdrew from treatment due to TEAEs, number (Example 3): 3 patients
- Patients with at least 1 TEAE leading to death (Example 3): 2 patients
- Serious TEAEs, % of patients (Example 3): 4.9%
- Serious TEAEs, number of patients (Example 3): 18 patients
- Vomiting, % of patients (Example 3): 0.5%
- Common TEAE, PT Diarrhoea, number of patients [1]: 10 n
- Common TEAE, PT Diarrhoea, percentage of patients [1]: (2.7%)
- Common TEAE, PT Headache, number of patients [1]: 10 n
- Common TEAE, PT Headache, percentage of patients [1]: (2.7%)
- Common TEAE, PT Influenza, number of patients [1]: 11 n
- Common TEAE, PT Influenza, percentage of patients [1]: (3.0%)
- Common TEAE, PT Nasopharyngitis, number of patients [1]: 32 n
- Common TEAE, PT Nasopharyngitis, percentage of patients [1]: (8.8%)
- Common TEAE, PT Nausea, number of patients [1]: 2 n
- Common TEAE, PT Nausea, percentage of patients [1]: (0.5%)
- Common TEAE, PT Upper respiratory tract infection, number of patients [1]: 11 n
- Common TEAE, PT Upper respiratory tract infection, percentage of patients [1]: (3.0%)
- Common TEAE, PT Vomiting, number of patients [1]: 2 n
- Common TEAE, PT Vomiting, percentage of patients [1]: (0.5%)
- Common TEAE, SOC Gastrointestinal disorders, number of patients [1]: 29 n
- Common TEAE, SOC Gastrointestinal disorders, percentage of patients [1]: (7.9%)
- Common TEAE, SOC Infections and infestations, number of patients [1]: 112 n
- Common TEAE, SOC Infections and infestations, percentage of patients [1]: (30.7%)
- Common TEAE, SOC Nervous system disorders, number of patients [1]: 19 n
- Common TEAE, SOC Nervous system disorders, percentage of patients [1]: (5.2%)
- % of patients experiencing TEAE(s) leading to permanent treatment discontinuation: Cardiopulmonary failure (PT, Safety population): (0.3%)
- % of patients experiencing TEAE(s) leading to permanent treatment discontinuation: Gallbladder cancer (PT, Safety population): (0.3%)
- % of patients experiencing TEAE(s) leading to permanent treatment discontinuation: Pregnancy (PT, Safety population): (0.3%)
- % of patients experiencing serious TEAE(s): Benign prostatic hyperplasia (PT, Safety population): (0.3%)
- % of patients experiencing serious TEAE(s): Cardiac failure congestive (PT, Safety population): (0.3%)
- % of patients experiencing serious TEAE(s): Cardiopulmonary failure (PT, Safety population): (0.3%)
- % of patients experiencing serious TEAE(s): Chest discomfort (PT, Safety population): (0.3%)
- % of patients experiencing serious TEAE(s): Cholecystitis acute (PT, Safety population): (0.3%)
- % of patients experiencing serious TEAE(s): Gallbladder cancer (PT, Safety population): (0.3%)
- % of patients experiencing serious TEAE(s): Glaucoma (PT, Safety population): (0.3%)
- % of patients experiencing serious TEAE(s): Hypertension (PT, Safety population): (0.3%)
- % of patients experiencing serious TEAE(s): Hypoglycaemia (PT, Safety population): (0.3%)
- % of patients experiencing serious TEAE(s): Intervertebral disc protrusion (PT, Safety population): (0.3%)
- % of patients experiencing serious TEAE(s): Kaposi’s sarcoma (PT, Safety population): (0.3%)
- % of patients experiencing serious TEAE(s): Meniscus injury (PT, Safety population): (0.3%)
- % of patients experiencing serious TEAE(s): Non-cardiac chest pain (PT, Safety population): (0.3%)
- % of patients experiencing serious TEAE(s): Osteomyelitis (PT, Safety population): (0.3%)
- % of patients experiencing serious TEAE(s): Pneumonia (PT, Safety population): (0.3%)
- % of patients experiencing serious TEAE(s): Renal impairment (PT, Safety population): (0.3%)
- % of patients experiencing serious TEAE(s): Wound infection (PT, Safety population): (0.3%)
- Number of patients experiencing TEAE(s) leading to permanent treatment discontinuation: Angina unstable (PT, Safety population): 0
- Number of patients experiencing TEAE(s) leading to permanent treatment discontinuation: Benign gastric neoplasm (PT, Safety population): 0
- Number of patients experiencing TEAE(s) leading to permanent treatment discontinuation: Cardiopulmonary failure (PT, Safety population): 1
- Number of patients experiencing TEAE(s) leading to permanent treatment discontinuation: Dizziness (PT, Safety population): 0
- Number of patients experiencing TEAE(s) leading to permanent treatment discontinuation: Gallbladder cancer (PT, Safety population): 1
- Number of patients experiencing TEAE(s) leading to permanent treatment discontinuation: Hypoglycaemic unconsciousness (PT, Safety population): 0
- Number of patients experiencing TEAE(s) leading to permanent treatment discontinuation: Nausea (PT, Safety population): 0
- Number of patients experiencing TEAE(s) leading to permanent treatment discontinuation: Pneumonia (PT, Safety population): 0
- Number of patients experiencing TEAE(s) leading to permanent treatment discontinuation: Pregnancy (PT, Safety population): 1
- Number of patients experiencing TEAE(s) leading to permanent treatment discontinuation: Weight increased (PT, Safety population): 0
- Number of patients experiencing serious TEAE(s): Acute myocardial infarction (PT, Safety population): 0
- Number of patients experiencing serious TEAE(s): Angina unstable (PT, Safety population): 0
- Number of patients experiencing serious TEAE(s): Arteriosclerosis coronary artery (PT, Safety population): 0
- Number of patients experiencing serious TEAE(s): Benign breast neoplasm (PT, Safety population): 0
- Number of patients experiencing serious TEAE(s): Benign gastric neoplasm (PT, Safety population): 0
- Number of patients experiencing serious TEAE(s): Benign prostatic hyperplasia (PT, Safety population): 1
- Number of patients experiencing serious TEAE(s): Breast cancer (PT, Safety population): 0
- Number of patients experiencing serious TEAE(s): Cardiac failure congestive (PT, Safety population): 1
- Number of patients experiencing serious TEAE(s): Cardiopulmonary failure (PT, Safety population): 1
- Number of patients experiencing serious TEAE(s): Chest discomfort (PT, Safety population): 1
